Measured values as given in patent publication US20090214427A1, “Novel peptides” (Licentia OY, priority 2004, published 2009).
pIC50: −log10 of the molar value. Positions of bridges follow the written chain, without caps; N, C: chain ends. No end group written: not given here.

target: T1, plasma kallikrein (Homo sapiens, UniProt P03952); assay: Specificity: effect on enzyme activity of plasma kallikrein (substrate S-2302); type: biochemical; details: not given
T1 construct: Human plasmin, thrombin and plasma kallikrein were from Sigma; purchased Sigma
Procedure: (§1) The effect of the peptides on the enzyme activity of hK2 was studied by using the chromogenic substrate S-2302 (H-D-Pro-Phe-Arg-pNA). HK2 (0.17 μM) was incubated with a 100-1000-fold molar excess of synthetic peptides in 20 mM Tris-buffer pH 8.0 containing 0.1% BSA for 30 minutes at room temperature. After addition of the substrate to a final concentration of 0.2 mM the absorbance was monitored at 405 nm at 5-10 min intervals for 1 h on a Victor 1420 Multilabel fluorometer (PerkinElmer-Wallac, Turku, Finland)
(§2) The specificity of the peptides was analyzed by studying their effect on the activity of other serine proteases including α-chylotrypsin, bovine trypsin, human trypsin 1, trypsin 2 and trypsin 3, urokinase, thrombin, plasmin, plasma kallikrein and PSA. The assay was as described above for hK2 except that the substrate for PSA and α-chymotrypsin was S-2586 (MeO-Suc-Arg-Pro-Tyr-pNA)(Chromogenix), S-2444 for urokinase, S-2238 for thrombin, S-2403 for plasmin, S-2302 for plasma kallikrein and that for various forms of trypsin was S-2222 (CO-Ile-Glu-(OR)-Gly-Arg-pNA)(Chromogenix).

T1 sequence (P03952 20-390 partner limits assumed): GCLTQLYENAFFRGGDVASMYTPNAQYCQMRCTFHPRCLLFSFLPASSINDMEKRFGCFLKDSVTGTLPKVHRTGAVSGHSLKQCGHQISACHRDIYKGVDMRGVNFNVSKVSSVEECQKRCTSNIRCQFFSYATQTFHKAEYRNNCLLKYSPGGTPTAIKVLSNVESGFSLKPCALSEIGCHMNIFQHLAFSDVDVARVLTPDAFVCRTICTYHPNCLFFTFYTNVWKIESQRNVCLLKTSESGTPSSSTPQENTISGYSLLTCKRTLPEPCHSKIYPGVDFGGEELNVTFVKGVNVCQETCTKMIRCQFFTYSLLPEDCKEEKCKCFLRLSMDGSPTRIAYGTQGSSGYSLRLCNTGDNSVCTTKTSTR
T1 sequence (P03952 391-638 limits assumed): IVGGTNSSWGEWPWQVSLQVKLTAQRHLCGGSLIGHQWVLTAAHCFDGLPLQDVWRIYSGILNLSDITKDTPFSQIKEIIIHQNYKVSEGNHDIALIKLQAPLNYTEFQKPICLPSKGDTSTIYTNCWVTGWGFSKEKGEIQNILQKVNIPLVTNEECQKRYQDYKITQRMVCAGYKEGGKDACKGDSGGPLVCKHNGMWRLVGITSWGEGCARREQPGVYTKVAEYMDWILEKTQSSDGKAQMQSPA

effect on activity of plasma kallikrein	Substance
no inhibition	AARRPFPAPS [HK2p02]
no inhibition	PARRPFPVTA [HK2p03]
no inhibition	SRFKVWWAAG-OH [HK2p01, SRFKVWWAAG]

system: α-chymotrypsin; assay: Specificity: effect on enzyme activity of α-chymotrypsin (substrate S-2586); type: biochemical; details: not given
Procedure: as §1, §2

effect on activity of α-chymotrypsin	Substance
no inhibition	AARRPFPAPS [HK2p02]
no inhibition	PARRPFPVTA [HK2p03]
no inhibition	SRFKVWWAAG-OH [HK2p01, SRFKVWWAAG]

target: T2, trypsin 2 (Homo sapiens, UniProt P07478); assay: Specificity: effect on enzyme activity of human trypsin 2 (substrate S-2222); type: biochemical; details: not given
T2 construct: made in house
Procedure: as §1, §2

T2 sequence (P07478 24-247): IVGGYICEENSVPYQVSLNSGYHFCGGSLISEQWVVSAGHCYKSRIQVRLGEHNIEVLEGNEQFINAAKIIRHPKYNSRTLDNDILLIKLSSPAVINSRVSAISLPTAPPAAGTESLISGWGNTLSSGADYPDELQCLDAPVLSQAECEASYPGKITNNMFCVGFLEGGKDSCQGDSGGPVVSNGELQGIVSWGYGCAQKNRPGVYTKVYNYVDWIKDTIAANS

effect on activity of human trypsin 2	Substance
no inhibition	AARRPFPAPS [HK2p02]
no inhibition	PARRPFPVTA [HK2p03]
no inhibition	SRFKVWWAAG-OH [HK2p01, SRFKVWWAAG]

target: T3, thrombin (Homo sapiens, UniProt P00734); assay: Specificity: effect on enzyme activity of thrombin (substrate S-2238); type: biochemical; details: not given
T3 construct: Human plasmin, thrombin and plasma kallikrein were from Sigma; purchased Sigma
Procedure: as §1, §2

effect on activity of thrombin	Substance
no inhibition	AARRPFPAPS [HK2p02]
no inhibition	PARRPFPVTA [HK2p03]
no inhibition	SRFKVWWAAG-OH [HK2p01, SRFKVWWAAG]

target: urokinase (Homo sapiens, UniProt P00749); assay: Specificity: effect on enzyme activity of urokinase (substrate S-2444); type: biochemical; details: not given
Procedure: as §1, §2

effect on activity of urokinase	Substance
no inhibition	AARRPFPAPS [HK2p02]
no inhibition	PARRPFPVTA [HK2p03]
no inhibition	SRFKVWWAAG-OH [HK2p01, SRFKVWWAAG]

target: T4, plasmin (Homo sapiens, UniProt P00747); assay: Specificity: effect on enzyme activity of plasmin (substrate S-2403); type: biochemical; details: not given
T4 construct: Human plasmin, thrombin and plasma kallikrein were from Sigma; purchased Sigma
Procedure: as §1, §2

T4 sequence (P00747 97-580 partner limits assumed): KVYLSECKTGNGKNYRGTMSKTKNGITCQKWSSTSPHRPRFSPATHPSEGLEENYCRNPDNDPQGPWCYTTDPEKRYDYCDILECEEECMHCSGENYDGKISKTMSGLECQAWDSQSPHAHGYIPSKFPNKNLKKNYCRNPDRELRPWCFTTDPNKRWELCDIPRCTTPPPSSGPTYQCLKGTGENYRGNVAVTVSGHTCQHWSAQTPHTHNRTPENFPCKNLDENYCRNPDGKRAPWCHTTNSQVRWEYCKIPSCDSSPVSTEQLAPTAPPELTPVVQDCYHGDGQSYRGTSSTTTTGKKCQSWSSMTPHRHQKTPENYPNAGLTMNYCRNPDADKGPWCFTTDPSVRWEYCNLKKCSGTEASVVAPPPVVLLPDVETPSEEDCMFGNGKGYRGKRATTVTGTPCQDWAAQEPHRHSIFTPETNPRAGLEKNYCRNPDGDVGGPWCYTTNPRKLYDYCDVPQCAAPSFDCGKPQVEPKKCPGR
T4 sequence (P00747 581-810 limits assumed): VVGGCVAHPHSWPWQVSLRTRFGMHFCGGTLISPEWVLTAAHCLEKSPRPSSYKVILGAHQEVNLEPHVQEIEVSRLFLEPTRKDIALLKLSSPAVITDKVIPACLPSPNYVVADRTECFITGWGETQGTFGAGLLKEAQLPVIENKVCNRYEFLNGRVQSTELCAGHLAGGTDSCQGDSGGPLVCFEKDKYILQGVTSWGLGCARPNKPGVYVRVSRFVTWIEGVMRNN

effect on activity of plasmin	Substance
no inhibition	AARRPFPAPS [HK2p02]
no inhibition	PARRPFPVTA [HK2p03]
no inhibition	SRFKVWWAAG-OH [HK2p01, SRFKVWWAAG]

target: T5, hK2 (Homo sapiens, UniProt P20151); assay: Cross-inhibition test: inhibition of phage binding to captured hK2 by synthetic peptides (IFMA); details: synthetic peptide 5 μM, FIG. 1
T5 construct: made in house
Procedure: The phage IFMA was performed essentially as described (Wu, Leinonen et al. 2000). In this assay, 50 ng of hK2 in 200 μL of assay buffer was captured onto wells coated with MAb 5E4. After washing, 2.5 μL of phage (10^8-10^9 infectious particles) and 200 μL assay buffer were added to wells. After incubation for 1 h, the wells were washed and filled with 200 μL of assay buffer containing 100 ng Eu-labeled anti-phage polyclonal antibody recognizing the M13 coat protein of the phage. After incubation for 60 min, the wells were washed 4 times, and enhancement solution (Perkin Elmer-Wallac) was added. The fluorescence was quantified with a Victor fluorometer in time resolved mode (Perkin Elmer-Wallac).
The relative binding sites of the peptides on hK2 were mapped by competition experiments with chemically synthesized and phage peptides. The protocol was based on the IFMA method described above except that phages and the synthetic peptides were reacted together with hK2. Briefly, each of the synthetic peptides at 5 μM concentration was added into the wells in which hK2 had been captured by MAb 5E4. After incubation for 30 min each phage was added. After 1 h incubation, the wells were washed and the assay was as described above for IFMA.

T5 sequence (P20151 25-261): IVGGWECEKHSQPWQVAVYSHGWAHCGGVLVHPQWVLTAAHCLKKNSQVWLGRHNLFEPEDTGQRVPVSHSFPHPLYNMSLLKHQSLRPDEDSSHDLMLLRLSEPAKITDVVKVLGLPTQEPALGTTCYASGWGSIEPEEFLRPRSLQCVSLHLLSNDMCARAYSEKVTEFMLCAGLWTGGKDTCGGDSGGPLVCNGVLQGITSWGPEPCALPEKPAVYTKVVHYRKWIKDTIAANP

inhibition of the binding of the phage carrying the corresponding peptide	Substance
inhibited efficiently	AARRPFPAPS [HK2p02]
inhibited efficiently	CYRMPTCMQRD [HK2p06]
not inhibited	FRTCLRSWACM [HK2p05]
inhibited efficiently	PARRPFPVTA [HK2p03]
inhibited efficiently	SRFKVWWAAG-OH [HK2p01, SRFKVWWAAG]

target: T6, human trypsin 1 (Homo sapiens, UniProt P07477); assay: Specificity: effect on enzyme activity of human trypsin 1 (substrate S-2222); type: biochemical; details: not given
T6 construct: made in house
Procedure: as §1, §2

effect on activity of human trypsin 1	Substance
no inhibition	AARRPFPAPS [HK2p02]
no inhibition	PARRPFPVTA [HK2p03]
no inhibition	SRFKVWWAAG-OH [HK2p01, SRFKVWWAAG]

target: T5, hK2; assay: Effect of the peptides on the enzyme activity of hK2 (chromogenic substrate S-2302); type: biochemical; details: 0.17 μM hK2, 100-fold molar excess of peptide
Procedure: “Inhibition”, as used in the present context, stands for an inhibitory action on the proteolytic activity of hK2.
as §1

inhibition of hK2 enzyme activity	Substance
slight inhibition	AARRPFPAPS [HK2p02]
slight inhibition	PARRPFPVTA [HK2p03]
slight inhibition	SRFKVWWAAG-OH [HK2p01, SRFKVWWAAG]

same assay, conditions: FIG. 3

effect of cyclic peptides on hK2 protease activity	Substance
slight inhibitory effect	C3AARRPAPAPCG (CAARRPAPAPCG; disulfide 1-11 (inferred)) [BTK144-18c]

same assay, conditions: Lineweaver-Burke Plot

type of inhibition of hK2	Substance
competitive inhibitor	ARFKVWWAAG [SEQ ID NO 56, A, R ,F, K, V, W, W, A, A, G]

same assay, conditions: enzymatic activity of hK2, chromogenic substrate, 405 nm

inhibition (percent inhibition of hK2) [%]	Substance
49	15 (GPARRPFPVTAG) [compound 15]
58	31 (GPARRPFPVTAG) [compound 31]
79	55 (SRFKVWWAAG) [compound 55]
27	57 (SRFKVWWAAG) [compound 57]
78	63 (SRFKVWWAAG) [compound 63]
85	64 (SRFKVWWAAG) [compound 64]
79	69 (SRFKVWWG) [compound 69]
82	73 (SRFKVWWG) [compound 73]

same assay, conditions: incubation of hK2 with synthetic peptide (FIG. 2)

effect on the enzyme activity of hK2	Substance
significant reduction	AARRPFPAPS [HK2p02]
did not show any effect	CFRQGCWVIT [HK2p04]
did not show any effect	CYRMPTCMQRD [HK2p06]
significant reduction	PARRPFPVTA [HK2p03]
significant reduction	SRFKVWWAAG-OH [HK2p01, SRFKVWWAAG]

target: T7, bovine trypsin (Bos taurus, UniProt P00760); assay: Specificity: effect on enzyme activity of bovine trypsin (substrate S-2222); type: biochemical; details: not given
T7 construct: purchased Athens Research and Technology, Athens, Ga., USA
T7 sequence (P00760 24-246): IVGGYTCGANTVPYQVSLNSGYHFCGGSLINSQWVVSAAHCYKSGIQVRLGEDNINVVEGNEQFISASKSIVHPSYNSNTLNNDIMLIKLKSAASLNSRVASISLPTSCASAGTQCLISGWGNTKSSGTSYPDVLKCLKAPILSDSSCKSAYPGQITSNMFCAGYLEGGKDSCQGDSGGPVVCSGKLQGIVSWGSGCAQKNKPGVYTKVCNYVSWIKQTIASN
Procedure: as §1, §2

effect on activity of bovine trypsin	Substance
no inhibition	AARRPFPAPS [HK2p02]
no inhibition	PARRPFPVTA [HK2p03]
no inhibition	SRFKVWWAAG-OH [HK2p01, SRFKVWWAAG]

target: T8, PSA (Homo sapiens, UniProt P07288); assay: Specificity: effect on enzyme activity of PSA (substrate S-2586); type: biochemical; details: not given
T8 construct: PSA was purified from human seminal plasma as described (Zhang et al. 1995); from tissue; host or cells: human seminal plasma
Procedure: as §1, §2

T8 sequence (P07288 25-261): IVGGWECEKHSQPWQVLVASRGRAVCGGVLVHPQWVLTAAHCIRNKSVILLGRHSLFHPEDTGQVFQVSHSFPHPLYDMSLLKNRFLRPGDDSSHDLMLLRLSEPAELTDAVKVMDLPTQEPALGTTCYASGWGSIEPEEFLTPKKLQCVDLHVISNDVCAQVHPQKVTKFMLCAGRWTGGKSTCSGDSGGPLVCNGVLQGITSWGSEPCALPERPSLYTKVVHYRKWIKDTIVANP

effect on activity of PSA	Substance
no inhibition	AARRPFPAPS [HK2p02]
no inhibition	PARRPFPVTA [HK2p03]
no inhibition	SRFKVWWAAG-OH [HK2p01, SRFKVWWAAG]

target: T5, hK2; assay: Effect of the peptides on the enzyme activity of hK2 (chromogenic substrate S-2302); type: biochemical; details: S-2302 200 μM, 0.17 μM hK2, 0-400 μM peptide; read-out: IC50 for hK2 inhibition

pIC50	Substance
5.66	ARFKVWWAAG [SEQ ID NO 56, A, R ,F, K, V, W, W, A, A, G]

target: T9, trypsin 3 (Homo sapiens, UniProt P35030); assay: Specificity: effect on enzyme activity of human trypsin 3 (substrate S-2222); type: biochemical; details: not given
T9 construct: made in house
T9 sequence (P35030 1-304): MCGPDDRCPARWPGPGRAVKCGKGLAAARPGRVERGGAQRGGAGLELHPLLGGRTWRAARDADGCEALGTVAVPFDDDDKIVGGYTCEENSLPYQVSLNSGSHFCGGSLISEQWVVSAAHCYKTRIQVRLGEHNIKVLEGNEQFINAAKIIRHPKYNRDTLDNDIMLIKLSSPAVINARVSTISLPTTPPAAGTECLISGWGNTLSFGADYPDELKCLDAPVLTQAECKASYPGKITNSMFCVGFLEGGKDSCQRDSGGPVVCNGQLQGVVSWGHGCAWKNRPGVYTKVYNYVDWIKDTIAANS
Procedure: as §1, §2

effect on activity of human trypsin 3	Substance
no inhibition	AARRPFPAPS [HK2p02]
no inhibition	PARRPFPVTA [HK2p03]
no inhibition	SRFKVWWAAG-OH [HK2p01, SRFKVWWAAG]
